Assay results from patent US20230287113A1 (NANTBIO, published 2023).
Where a chain is given by its changes, count along the chain named.

T1: human TIM-3 (T-cell immunoglobulin mucin receptor 3) (human, UniProt Q8TDQ0 22-202, limits assumed)
T1 sequence (looked up): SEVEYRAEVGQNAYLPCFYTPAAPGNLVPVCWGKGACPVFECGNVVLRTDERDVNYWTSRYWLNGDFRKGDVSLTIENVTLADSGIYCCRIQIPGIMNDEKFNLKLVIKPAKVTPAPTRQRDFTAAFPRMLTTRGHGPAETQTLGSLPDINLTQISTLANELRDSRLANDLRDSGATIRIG

B1: anti-TIM-3 IgG1 antibody 64-31 (antibody, V domains shown)
VH: EVQLVESGGGLVQPGGSLRLSCAASGFTFSAYAMHWVRQAPGKGLEWVSAINGNGGRTYYADSVKGRFTISRDNSKNTLYLQMNSLRAEDTAVYYCARDLTRTVPFAFDVWGQGTLVTVSS
VL: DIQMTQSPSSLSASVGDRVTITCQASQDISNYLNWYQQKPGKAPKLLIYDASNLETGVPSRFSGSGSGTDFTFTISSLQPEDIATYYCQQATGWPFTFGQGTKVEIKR
notes: human IgG1; The printed HC begins with M before EVQL; also called aTIM-3 IgG1 64-31
B2: anti-TIM-3 IgG1 antibody 64-6 (antibody, V domains shown)
VH: EVQLVESGGGLVQPGGSLRLSCAASGFTFSRYAMHWVRQAPGKGLEWVSAISGSGGYTYYADSVKGRFTISRDNSKNTLYLQMNSLRAEDTAVYYCARDRHWVLSAFDVWGQGTLVTVSS
VL: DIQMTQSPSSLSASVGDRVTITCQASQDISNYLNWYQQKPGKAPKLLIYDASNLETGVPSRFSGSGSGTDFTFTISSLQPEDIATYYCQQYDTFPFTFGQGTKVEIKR
notes: human IgG1; also called aTIM-3 IgG1 64-6
B3: anti-TIM-3 IgG1 antibody 66-6 (antibody, V domains shown)
VH: B2 VH with R31K, Y57S, R100L, H101D, W102Y, V103R, L104F, A106G
VL: DIQMTQSPSSLSASVGDRVTITCQASQDISNYLNWYQQKPGKAPKLLIYDASNLETGVPSRFSGSGSGTDFTFTISSLQPEDIATYYCQQFAAIPLTFGQGTKVEIKR
notes: human IgG1; The printed HC begins with M before EVQL; also called aTIM-3 IgG1 66-6
B4: anti-TIM-3 IgG1 antibody 64-39 (antibody, V domains shown)
VH: B2 VH with A50G, Y57G, R100L, H101D, W102Y, V103R, L104V, A106G
VL: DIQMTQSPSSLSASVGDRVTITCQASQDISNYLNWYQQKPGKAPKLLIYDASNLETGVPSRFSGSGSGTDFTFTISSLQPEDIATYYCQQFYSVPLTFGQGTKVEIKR
notes: human IgG1; The printed HC begins with M before EVQL; also called aTIM-3 IgG1 64-39
B5: anti-TIM-3 IgG1 antibody 64-32 (antibody, V domains shown)
VH: B2 VH with R31K, R100L, H101D, W102F, V103R, L104I, S105V, A106G
VL: B3 VL with A92N, A93T, I94V
notes: human IgG1; The printed HC begins with M before EVQL; also called aTIM-3 IgG1 64-32
B6: anti-TIM-3 IgG1 antibody 64-15 (antibody, V domains shown)
VH: EVQLVESGGGLVQPGGSLRLSCAASGFTFSSYYMHWVRQAPGKGLEWVSGISGSGGSTYYADSVKGRFTISRDNSKNTLYLQMNSLRAEDTAVYYCARGRGAWPFTRVVAFDVWGQGTLVTVSS
VL: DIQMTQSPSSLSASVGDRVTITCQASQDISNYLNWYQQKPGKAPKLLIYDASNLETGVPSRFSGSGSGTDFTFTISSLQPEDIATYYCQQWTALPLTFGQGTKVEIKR
notes: human IgG1; also called aTIM-3 IgG1 64-15

target: T1, human TIM-3 (T-cell immunoglobulin …); assay: ratio of KD at 37 C to KD at 25 C, SPR or Octet
Description: (§1) In one typical example, the inventors prepared antibodies using the above HC and LC sequences with matching preceding numbers and tested the so prepared antibodies for TIM3 binding. […] All values are ×10⁻⁹M. anti-TIM-3 IgG1 antibodies were captured on the chip surface using anti-human Fc antibody (SPR) or AHC sensor (Octet), and human TIM-3 was the analyte.

KD difference between 25° C. and 37° C. (fold)	Binder
3.51 fold	B1
5.43 fold	B2
4.15 fold	B3
4.18 fold	B4
2.36 fold	B5
7.61 fold	B6

target: T1, human TIM-3 (T-cell immunoglobulin …); assay: SPR (Pioneer FE) or Octet (Red96e), IgG1 captured by anti-human Fc / AHC sensor, human TIM-3 analyte, 25 C
Description: as §1

Kd	Binder
10.4 nM	B1
0.46 nM	B2
1.69 nM	B3
1.53 nM	B4
0.39 nM	B5
0.71 nM	B6

target: T1, human TIM-3 (T-cell immunoglobulin …); assay: SPR (Pioneer FE) or Octet (Red96e), IgG1 captured by anti-human Fc / AHC sensor, human TIM-3 analyte, 37 C
Description: as §1

Kd	Binder
36.5 nM	B1
2.5 nM	B2
7.01 nM	B3
6.39 nM	B4
0.92 nM	B5
5.4 nM	B6
